Data reported in article PMC8305194, “Structural, Mechanistic, and Functional Insights into an Arthrobacter nicotinovorans Molybdenum Hydroxylase Involved in Nicotine Degradation” (Molecules, 2021).

What was measured:
purified protein = substrate: CNCCCC(=O)c1ccc(O)nc1; assay: purified protein; type: biochemical, Paenarthrobacter nicotinovorans; details: 500 μM PMS, 50 μM DCIP, aerobic, 30 °C, Tris-HCl pH 8.0
[1] = target: the molecule itself; assay: crystal structure; Kdh holoenzyme crystallised by hanging-drop vapor diffusion at 14 °C; 1% tryptone, 0.1 M Tris-HCl pH 8.0, 25% PEG 3350; space group P212121, two heterotrimers per asymmetric unit; 3.4 Å

Protein | Km (purified protein) [µM] | kcat (purified protein) [s⁻¹] | kcat/Km (purified protein) [M⁻¹ s⁻¹] | stoichiometry N [1]
Kdh holoenzyme (KdhL, KdhM, KdhS); 6-hydroxypseudooxynicotine 2-oxidoreductase; ketone dehydrogenase (Paenarthrobacter nicotinovorans; F269A) (protein, kdhLMS co-expressed from pART2-kdhLMS in A. nicotinovorans pAO1; Ni-NTA (tag not described) and Superdex 200; KdhL 87 kDa, KdhM 287 residues, KdhS 160 residues; heterotrimer, dimer of heterotrimers in crystal; with 6-hydroxypseudooxynicotine dehydrogenase complex subunit alpha; 6-hydroxypseudooxynicotine dehydrogenase complex subunit beta) MMAKAKALIPDNGRAGADEGNRQAWIGQEVLRREDRRLLTGTATFAGDLGVPGQLHMRIVRSTQAHARIVSIDATEAEKTPGVRMVITSEHTRHLGSVLLEELGYHEIYENIEDFSHPVLAVDKVLYVGQPVVAVLAVDPYLAEDAAELVSIEYEPLPVLLDPEEALTGKVELFPGRGNEGARIKKAYGDIDRAFAEAEHVIRHKYVTNRHSGVPMEPRAVVVQPDPARDTLFIWGTVHVHDNRRIIAKMLNLPEVNVRMKHVEIGGSAGVKGGVFPENVVAAWAARTLGVPIKWTEDRVEHMTSTSHAREMVHKLELALDAEGRILGMKDEIFHNHGAYFRQAEPLVSDITAGIVFGPYRVPAYDATLHAVFTNKTPVGAYRAPGRYESTFARERIFDLACAEIGLSKTEFRRRNLLTAEDLPWTPGLDIVHEPYHFDSGDVVKHFNEALEAANFSEWLEESKRLRADGRKVGVGLGVLMDKAGLGLFETGGVEVSRAGRVTVKTGGSSVGQGIETVLAQIVAEELQIAPENIDIVHSDTELIPDGVGSWSSRSTVLAGGAARKAALAVVEKARRLASEMLEADPDDLELTAGSFKVKGTDQQISLYEIAAARDPFTARADNDEPGLAADAVYMNNAMNYPYGVTLVQIELDPDTGGHRILRFSTSTEAGRVINPLTTRGQIIGAAVQGIGGALYEEFLYEEDGQPITTSFMDYLLPSAQEMPNVDCFVTEDAKSPDNPFGAKGLGEIGIIAAGAAIASAIDDAIADGVHTDRLPVTPEQIFSRCQGLNKAER | 25.98 ± 2.73 | 2.3 ± 0.07 | 90000 ± 30000 | 
Kdh holoenzyme (KdhL, KdhM, KdhS); 6-hydroxypseudooxynicotine 2-oxidoreductase; ketone dehydrogenase (Paenarthrobacter nicotinovorans; R383A) (protein, kdhLMS co-expressed from pART2-kdhLMS in A. nicotinovorans pAO1; Ni-NTA (tag not described) and Superdex 200; KdhL 87 kDa, KdhM 287 residues, KdhS 160 residues; heterotrimer, dimer of heterotrimers in crystal; with 6-hydroxypseudooxynicotine dehydrogenase complex subunit alpha; 6-hydroxypseudooxynicotine dehydrogenase complex subunit beta) MMAKAKALIPDNGRAGADEGNRQAWIGQEVLRREDRRLLTGTATFAGDLGVPGQLHMRIVRSTQAHARIVSIDATEAEKTPGVRMVITSEHTRHLGSVLLEELGYHEIYENIEDFSHPVLAVDKVLYVGQPVVAVLAVDPYLAEDAAELVSIEYEPLPVLLDPEEALTGKVELFPGRGNEGARIKKAYGDIDRAFAEAEHVIRHKYVTNRHSGVPMEPRAVVVQPDPARDTLFIWGTVHVHDNRRIIAKMLNLPEVNVRMKHVEIGGSFGVKGGVFPENVVAAWAARTLGVPIKWTEDRVEHMTSTSHAREMVHKLELALDAEGRILGMKDEIFHNHGAYFRQAEPLVSDITAGIVFGPYRVPAYDATLHAVFTNKTPVGAYAAPGRYESTFARERIFDLACAEIGLSKTEFRRRNLLTAEDLPWTPGLDIVHEPYHFDSGDVVKHFNEALEAANFSEWLEESKRLRADGRKVGVGLGVLMDKAGLGLFETGGVEVSRAGRVTVKTGGSSVGQGIETVLAQIVAEELQIAPENIDIVHSDTELIPDGVGSWSSRSTVLAGGAARKAALAVVEKARRLASEMLEADPDDLELTAGSFKVKGTDQQISLYEIAAARDPFTARADNDEPGLAADAVYMNNAMNYPYGVTLVQIELDPDTGGHRILRFSTSTEAGRVINPLTTRGQIIGAAVQGIGGALYEEFLYEEDGQPITTSFMDYLLPSAQEMPNVDCFVTEDAKSPDNPFGAKGLGEIGIIAAGAAIASAIDDAIADGVHTDRLPVTPEQIFSRCQGLNKAER | 21.4 ± 2.3 | 6.32 ± 0.16 | 300000 ± 70000 | 
Kdh holoenzyme (heterotrimer of KdhL, KdhM and KdhS) (complex, Arthrobacter nicotinovorans, KdhL, 87 kDa molybdopterin (MCD) subunit of Kdh, Arthrobacter nicotinovorans; KdhM, 32 kDa FAD subunit of Kdh, Arthrobacter nicotinovorans; contains 287 residues; KdhS, 17.6 kDa Fe2S2 subunit of Kdh, Arthrobacter nicotinovorans; has 160 residues; Heterotrimer with MCD, two Fe2S2 and FAD; two heterotrimers form the dimer seen in the crystal; also called ketone dehydrogenase; …) chain 1: MMAKAKALIPDNGRAGADEGNRQAWIGQEVLRREDRRLLTGTATFAGDLGVPGQLHMRIVRSTQAHARIVSIDATEAEKTPGVRMVITSEHTRHLGSVLLEELGYHEIYENIEDFSHPVLAVDKVLYVGQPVVAVLAVDPYLAEDAAELVSIEYEPLPVLLDPEEALTGKVELFPGRGNEGARIKKAYGDIDRAFAEAEHVIRHKYVTNRHSGVPMEPRAVVVQPDPARDTLFIWGTVHVHDNRRIIAKMLNLPEVNVRMKHVEIGGSFGVKGGVFPENVVAAWAARTLGVPIKWTEDRVEHMTSTSHAREMVHKLELALDAEGRILGMKDEIFHNHGAYFRQAEPLVSDITAGIVFGPYRVPAYDATLHAVFTNKTPVGAYRAPGRYESTFARERIFDLACAEIGLSKTEFRRRNLLTAEDLPWTPGLDIVHEPYHFDSGDVVKHFNEALEAANFSEWLEESKRLRADGRKVGVGLGVLMDKAGLGLFETGGVEVSRAGRVTVKTGGSSVGQGIETVLAQIVAEELQIAPENIDIVHSDTELIPDGVGSWSSRSTVLAGGAARKAALAVVEKARRLASEMLEADPDDLELTAGSFKVKGTDQQISLYEIAAARDPFTARADNDEPGLAADAVYMNNAMNYPYGVTLVQIELDPDTGGHRILRFSTSTEAGRVINPLTTRGQIIGAAVQGIGGALYEEFLYEEDGQPITTSFMDYLLPSAQEMPNVDCFVTEDAKSPDNPFGAKGLGEIGIIAAGAAIASAIDDAIADGVHTDRLPVTPEQIFSRCQGLN chain 2: MKPPSFDYVVADSVEHALRLLADGGDDAKIIAGGQSLVPLLNFRMSRPSLLVDINRVPGLANIRKSDQTIAIGALTRHAKLTTSKTISQNLPILSEAAAWIAHPQIRNRGTIGGSLAHADAAAELPVVLLALDAYVTAQSLQGERKIPLKELLVSHFVSSILPGELIVEVNVPQLPHGSGAAFDEFSRRHGDYAIGGAASIVTLDEQGKCSRARITVLGGGSTAIRCQEAENILIDSTLSSHDIAAAAHAAVQGLDPVPTVHGSAQYRAQVIRTMVERTLAKALHRA chain 3: MNAFRLTVEVNGVTHATDVEPRRLLADFLRDDLHLRGTRVGCEHGVCGSCTVLLDGQPVRSCTVLAVQANNSRIETVESLQKDGQLHPLQRSFSKCHALQCGFCTSGFLMTLKPLYDDEDVTLDATSAREAISGNICRCTGYQQIVEATVDAFHCRDHND |  |  |  | 2
